Experimental data reported in patent US20130195871A1 (AbbVie / Abbott, published 2013).

Tests used:
[1] = target: T1, Recombinant Human ErbB3/FC Chimera-His tag (human, UniProt P21860 20-643); assay: SPR (Biacore)
T1 construct: bought reagent
Method: (§1) The BIACORE assay (Biacore, Inc, Piscataway, N.J.) determined the affinity of antibodies or DVD-Ig proteins with kinetic measurements of on-rate and off-rate constants. Binding of antibodies or DVD-Ig proteins to a target antigen (for example, a purified recombinant target antigen) was determined by surface plasmon resonance-based measurements with a Biacore® 1000 or 3000 instrument (Biacore AB, Uppsala. Sweden) using running HBS-EP (10 mM HEPES [pH 7.4], 150 mM NaCl, 3 mM EDTA, and 0.005% surfactant P20) at 25° C. […] For example, approximately 5000 RU of goat anti-mouse IgG, (Fcγ), fragment specific polyclonal antibody (Pierce Biotechnology Inc, Rockford, Ill.) diluted in 10 mM sodium acetate (pH 4.5) was directly immobilized across a CM5 research grade biosensor chip using a standard amine coupling kit according to manufacturer's instructions and procedures at 25 μg/ml. Unreacted moieties on the biosensor surface were blocked with ethanolamine. Modified carboxymethyl dextran surface in flowcell 2 and 4 was used as a reaction surface. Unmodified carboxymethyl dextran without goat anti-mouse IgG in flow cell 1 and 3 was used as the reference surface. For kinetic analysis, rate equations derived from the 1:1 Langmuir binding model were fitted simultaneously to association and dissociation phases of all eight injections (using global fit analysis) with the use of Biaevaluation 4.0.1 software. Purified antibodies or DVD-Ig proteins were diluted in HEPES-buffered saline for capture across goat anti-mouse IgG specific reaction surfaces. Antibodies or DVD-Ig proteins to be captured as a ligand (25 μg/ml) were injected over reaction matrices at a flow rate of 5 μl/minute. The association and dissociation rate constants, kₒₙ (M⁻¹s⁻¹) and koff (s⁻¹) were determined under a continuous flow rate of 25 μl/minute. Rate constants were derived by making kinetic binding measurements at different antigen concentrations ranging from 10-200 nM. The equilibrium dissociation constant (M) of the reaction between antibodies or DVD-Ig proteins and the target antigen was then calculated from the kinetic rate constants by the following formula: KD=koff/kₒₙ. Binding was recorded as a function of time and kinetic rate constants were calculated.

[2] = target: T2, Recombinant Human EGFR ECD (human, UniProt P00533 25-645); assay: SPR (Biacore), N-terminal VD;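 further: capture of antibodies or DVD-Ig proteins on an anti-mouse IgG chip surface, recombinant antigen injected at 10–200 nM in HBS-EP running buffer at 25 °C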
T2 construct: extracellular domain; bought reagent
Method: as §1

[3] = target: T2, Recombinant Human EGFR ECD; assay: SPR (Biacore), C-terminal VD;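 further: surface plasmon resonance with DVD-Ig proteins captured on an anti-IgG chip and recombinant antigen flowed over in HBS-EP buffer, Langmuir global fit, KD taken as koff/kon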
[4] = target: T3, Recombinant Human IGF1R (human, UniProt P08069 31-932); assay: SPR (Biacore), N-terminal VD;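 further: capture of antibodies or DVD-Ig proteins on an anti-mouse IgG chip surface, recombinant antigen injected at 10–200 nM in HBS-EP running buffer at 25 °C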
T3 construct: bought reagent
Method: as §1

[5] = target: T3, Recombinant Human IGF1R; assay: SPR (Biacore)
Method: as §1

B1: DVD2238 (bispecific antibody)
VH: QVQLQQWGAGLLKPSETLSLTCAVYGGSFSGYYWSWIRQPPGKGLEWIGEINHSGSTNYNPSLKSRVTISVETSKNQFSLKLSSVTAADTAVYYCARDKWTWYFDLWGRGTLVTVSSASTKGPEVQLVESGGGLVQPGGSLRLSCAASGFTFSIYSMNWVRQAPGKGLEWVSYISSSSSTIYYADSVKGRFTISRDNAKNSLYLQMNSLRDEDTAVYYCARDRGDFDAFDIWGQGTMVTVSS
VL: DIEMTQSPDSLAVSLGERATINCRSSQSVLYSSSNRNYLAWYQQNPGQPPKLLIYWASTRESGVPDRFSGSGSGTDFTLTISSLQAEDVAVYYCQQYYSTPRTFGQGTKVEIKRTVAAPDIQMTQSPSSLSASVGDRVTITCQASQDITNYLNWYQQKPGKAPKLLIYDASNLETGVPSRFSGSGSGTDFTFTISSLQPEDIATYNCQQCENFPITFGQGTRLEIK
notes: DVD-Ig, outer AB062 / inner AB063
Kd [1]: 5.9 nM | koff [1]: 0.0003 s⁻¹ | kon [1]: 51000 M⁻¹ s⁻¹

B2: DVD2242 (bispecific antibody)
VH: QVQLQQWGAGLLKPSETLSLTCAVYGGSFSGYYWSWIRQPPGKGLEWIGEINHSGSTNYNPSLKSRVTISVETSKNQFSLKLSSVTAADTAVYYCARDKWTWYFDLWGRGTLVTVSSASTKGPSVFPLAPEVQLVESGGGLVQPGGSLRLSCAASGFTFSIYSMNWVRQAPGKGLEWVSYISSSSSTIYYADSVKGRFTISRDNAKNSLYLQMNSLRDEDTAVYYCARDRGDFDAFDIWGQGTMVTVSS
VL: DIEMTQSPDSLAVSLGERATINCRSSQSVLYSSSNRNYLAWYQQNPGQPPKLLIYWASTRESGVPDRFSGSGSGTDFTLTISSLQAEDVAVYYCQQYYSTPRTFGQGTKVEIKRTVAAPDIQMTQSPSSLSASVGDRVTITCQASQDITNYLNWYQQKPGKAPKLLIYDASNLETGVPSRFSGSGSGTDFTFTISSLQPEDIATYNCQQCENFPITFGQGTRLEIK
notes: as for B1
Kd [1]: 7.6 nM | koff [1]: 0.00051 s⁻¹ | kon [1]: 67000 M⁻¹ s⁻¹

B3: DVD2349 (bispecific antibody)
VH: EVQLVESGGGLVQPGGSLRLSCAASGFSLTNYGVHWVRQAPGKGLEWLGVGWSGGNTDYNTPFTSRLTINKDNSKNTVYLQMNSLRAEDTAVYYCARALTWYDYEFAYWGQGTLVTVSSASTKGPQVQLQESGPGLVKPSQTLSLTCTVSGYSISSDFAWNWIRQPPGKGLEWMGYISYSGNTRYQPSLKSRITISRDTSKNQFFLKLNSVTAADTATYYCVTAGRGFPYWGQGTLVTVSS
VL: DILLTQSPGTLSLSPGERATLSCRASQSIYTNIHWYQQKPGQAPRLLIKYASESISGIPDRFSGSGSGTDFTLTISRLEPEDFAVYYCQQNLNWPTTFGQGTKLEIKRTVAAPDIQMTQSPSSMSVSVGDRVTITCHSSQDINSNIGWLQQKPGKSFKGLIYHGTNLDDGVPSRFSGSGSGTDYTLTISSLQPEDFATYYCVQYAQFPWTFGGGTKLEIK
Kd [2]: 0.76 nM | koff [2]: 0.00045 s⁻¹ | kon [2]: 580000 M⁻¹ s⁻¹

B4: DVD2348 (bispecific antibody)
VH: QVQLQESGPGLVKPSQTLSLTCTVSGYSISSDFAWNWIRQPPGKGLEWMGYISYSGNTRYQPSLKSRITISRDTSKNQFFLKLNSVTAADTATYYCVTAGRGFPYWGQGTLVTVSSASTKGPEVQLVESGGGLVQPGGSLRLSCAASGFSLTNYGVHWVRQAPGKGLEWLGVGWSGGNTDYNTPFTSRLTINKDNSKNTVYLQMNSLRAEDTAVYYCARALTWYDYEFAYWGQGTLVTVSS
VL: DIQMTQSPSSMSVSVGDRVTITCHSSQDINSNIGWLQQKPGKSFKGLIYHGTNLDDGVPSRFSGSGSGTDYTLTISSLQPEDFATYYCVQYAQFPWTFGGGTKLEIKRTVAAPDILLTQSPGTLSLSPGERATLSCRASQSIYTNIHWYQQKPGQAPRLLIKYASESISGIPDRFSGSGSGTDFTLTISRLEPEDFAVYYCQQNLNWPTTFGQGTKLEIK
Kd [2]: 8.5 nM | koff [2]: 0.00024 s⁻¹ | kon [2]: 28000 M⁻¹ s⁻¹

B5: DVD2268 (bispecific antibody)
VH: EVQLVESGGGLVQPGGSLRLSCAASGFTFTDYTMDWVRQAPGKGLEWVADVNPNSGGSIYNQRFKGRFTLSVDRSKNTLYLQMNSLRAEDTAVYYCARNLGPSFYFDYWGQGTLVTVSSASTKGPQVQLQESGPGLVKPSETLSLTCTVSGGSVSSGDYYWTWIRQSPGKGLEWIGHIYYSGNTNYNPSLKSRLTISIDTSKTQFSLKLSSVTAADTAIYYCVRDRVTGAFDIWGQGTMVTVSS
VL: DIQMTQSPSSLSASVGDRVTITCKASQDVSIGVAWYQQKPGKAPKLLIYSASYRYTGVPSRFSGSGSGTDFTLTISSLQPEDFATYYCQQYYIYPYTFGQGTKVEIKRTVAAPDIQMTQSPSSLSASVGDRVTITCQASQDISNYLNWYQQKPGKAPKLLIYDASNLETGVPSRFSGSGSGTDFTFTISSLQPEDIATYFCQHFDHLPLAFGGGTKVEIK
Kd [3]: 18 nM | koff [3]: 0.00035 s⁻¹ | kon [3]: 19000 M⁻¹ s⁻¹

B6: DVD2284 (bispecific antibody)
VH: EVQLVQSGAEVKKPGSSVKVSCKASGGTFSSYAISWVRQAPGQGLEWMGGIIPIFGTANYAQKFQGRVTITADKSTSTAYMELSSLRSEDTAVYYCARAPLRFLEWSTQDHYYYYYMDVWGKGTTVTVSSASTKGPQVQLQESGPGLVKPSQTLSLTCTVSGYSISSDFAWNWIRQPPGKGLEWMGYISYSGNTRYQPSLKSRITISRDTSKNQFFLKLNSVTAADTATYYCVTAGRGFPYWGQGTLVTVSS
VL: SSELTQDPAVSVALGQTVRITCQGDSLRSYYATWYQQKPGQAPILVIYGENKRPSGIPDRFSGSSSGNTASLTITGAQAEDEADYYCKSRDGSGQHLVFGGGTKLTVLGQPKAAPDIQMTQSPSSMSVSVGDRVTITCHSSQDINSNIGWLQQKPGKSFKGLIYHGTNLDDGVPSRFSGSGSGTDYTLTISSLQPEDFATYYCVQYAQFPWTFGGGTKLEIK
Kd [3]: 6.1 nM | koff [3]: 0.00016 s⁻¹ | kon [3]: 26000 M⁻¹ s⁻¹ | Kd [4]: 7.4 nM | koff [4]: 0.00019 s⁻¹ | kon [4]: 26000 M⁻¹ s⁻¹

B7: DVD2218 (bispecific antibody)
VH: EVQLVQSGAEVKKPGSSVKVSCKASGGTFSSYAISWVRQAPGQGLEWMGGIIPIFGTANYAQKFQGRVTITADKSTSTAYMELSSLRSEDTAVYYCARAPLRFLEWSTQDHYYYYYMDVWGKGTTVTVSSASTKGPSVFPLAPEVQLLESGGGLVQPGGSLRLSCTASGFTFSSYAMNWVRQAPGKGLEWVSAISGSGGTTFYADSVKGRFTISRDNSRTTLYLQMNSLRAEDTAVYYCAKDLGWSDSYYYYYGMDVWGQGTTVTVSS
VL: SSELTQDPAVSVALGQTVRITCQGDSLRSYYATWYQQKPGQAPILVIYGENKRPSGIPDRFSGSSSGNTASLTITGAQAEDEADYYCKSRDGSGQHLVFGGGTKLTVLGQPKAAPDIQMTQFPSSLSASVGDRVTITCRASQGIRNDLGWYQQKPGKAPKRLIYAASRLHRGVPSRFSGSGSGTEFTLTISSLQPEDFATYYCLQHNSYPCSFGQGTKLEIK
notes: DVD-Ig, outer AB075 / inner AB011
Kd [5]: 5.3 nM | koff [5]: 0.00013 s⁻¹ | kon [5]: 25000 M⁻¹ s⁻¹

B8: DVD2249 (bispecific antibody)
VH: EVQLLESGGGLVQPGGSLRLSCAASGFTFSHYVMAWVRQAPGKGLEWVSSISSSGGWTLYADSVKGRFTISRDNSKNTLYLQMNSLRAEDTAVYYCTRGLKMATIFDYWGQGTLVTVSSASTKGPSVFPLAPQVQLQQWGAGLLKPSETLSLTCAVYGGSFSGYYWSWIRQPPGKGLEWIGEINHSGSTNYNPSLKSRVTISVETSKNQFSLKLSSVTAADTAVYYCARDKWTWYFDLWGRGTLVTVSS
VL: QSALTQPASVSGSPGQSITISCTGTSSDVGSYNVVSWYQQHPGKAPKLIIYEVSQRPSGVSNRFSGSKSGNTASLTISGLQTEDEADYYCCSYAGSSIFVIFGGGTKVTVLGTVAAPDIEMTQSPDSLAVSLGERATINCRSSQSVLYSSSNRNYLAWYQQNPGQPPKLLIYWASTRESGVPDRFSGSGSGTDFTLTISSLQAEDVAVYYCQQYYSTPRTFGQGTKVEIK
notes: DVD-Ig, outer AB116 / inner AB062
Kd [1]: 5.6 nM | koff [1]: 0.00022 s⁻¹ | kon [1]: 39000 M⁻¹ s⁻¹
